These results are taken from patent publication US5677280A, “Peptides and compounds that bind to the IL-5 receptor” (Glaxo Group Limited, priority 1995, dated 1997).

The Kd is the constant that tells how readily two partners part at equilibrium. For orientation: IC50 means the concentration at which inhibition is half-maximal. Low readings indicate greater potency in that assay, high ones weaker potency in that assay.

Bounds are passed on as bounds.

For one experiment, the target named is T1, human IL-5 receptor (Homo sapiens, UniProt Q01344).
T1 construct: host or cells: subclone of HL60 induced towards eosinophil differentiation with sodium butyrate (endogenous receptor)
T1 sequence (Q01344 21-420): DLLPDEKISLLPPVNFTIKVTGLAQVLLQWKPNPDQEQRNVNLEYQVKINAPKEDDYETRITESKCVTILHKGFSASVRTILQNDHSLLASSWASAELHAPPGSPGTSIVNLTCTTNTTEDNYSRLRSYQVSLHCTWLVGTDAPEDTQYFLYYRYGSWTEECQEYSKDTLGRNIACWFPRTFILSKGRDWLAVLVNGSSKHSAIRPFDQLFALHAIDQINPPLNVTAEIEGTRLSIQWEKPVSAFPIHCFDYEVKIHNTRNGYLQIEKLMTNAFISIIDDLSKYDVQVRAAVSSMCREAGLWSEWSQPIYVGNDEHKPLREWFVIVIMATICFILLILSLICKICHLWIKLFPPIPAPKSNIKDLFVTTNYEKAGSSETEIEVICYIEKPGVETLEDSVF
T1 sequence (P32927 17-897 partner): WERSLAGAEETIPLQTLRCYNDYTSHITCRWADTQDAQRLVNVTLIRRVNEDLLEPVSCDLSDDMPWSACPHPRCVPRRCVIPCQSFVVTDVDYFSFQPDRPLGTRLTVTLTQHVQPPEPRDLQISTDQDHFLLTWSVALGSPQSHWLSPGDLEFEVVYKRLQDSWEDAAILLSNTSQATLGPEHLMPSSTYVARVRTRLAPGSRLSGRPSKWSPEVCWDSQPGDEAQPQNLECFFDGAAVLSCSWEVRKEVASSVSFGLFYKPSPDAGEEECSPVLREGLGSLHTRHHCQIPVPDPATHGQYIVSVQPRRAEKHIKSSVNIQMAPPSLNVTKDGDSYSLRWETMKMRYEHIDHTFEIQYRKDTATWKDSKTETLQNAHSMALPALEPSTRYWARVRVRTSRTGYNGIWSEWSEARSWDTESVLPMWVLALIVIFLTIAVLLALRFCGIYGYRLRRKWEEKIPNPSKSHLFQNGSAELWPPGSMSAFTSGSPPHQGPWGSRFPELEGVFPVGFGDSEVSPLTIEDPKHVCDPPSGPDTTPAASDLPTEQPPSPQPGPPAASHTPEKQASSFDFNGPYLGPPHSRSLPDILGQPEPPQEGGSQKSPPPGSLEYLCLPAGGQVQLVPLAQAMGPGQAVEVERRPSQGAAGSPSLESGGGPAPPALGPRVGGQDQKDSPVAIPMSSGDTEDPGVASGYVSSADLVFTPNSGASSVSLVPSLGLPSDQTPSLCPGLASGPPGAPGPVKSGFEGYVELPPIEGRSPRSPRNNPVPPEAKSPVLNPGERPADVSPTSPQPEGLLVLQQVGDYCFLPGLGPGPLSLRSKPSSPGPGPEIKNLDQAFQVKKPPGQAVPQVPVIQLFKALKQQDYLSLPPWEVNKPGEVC
To be noted: HL60 subclone, eosinophilic differentiation initiated with sodium butyrate; read-out: Kd of IL-5 binding sites; cited from earlier work.

Experiment [1] deals with extracellular domain (ECD) of the IL-5 receptor α chain, soluble (human) (UniProt Q01344). Put plainly: competition with [125I] IL-5 on immobilised soluble IL-5Rα; grade ++ = IC50 of 500 nm or less.

In the case of “IL-5: lymphokine secreted by T cells and mast cells having biological activities on B cells and eosinophils”, the Kd in the experiment with human IL-5 receptor was 0.03 nM.

In the case of DGYVCVEWARCPTCK [peptide … (SEQ ID NO:7)], the IC50 in experiment [1] was less than 500 nM.

The molecule DGYVCVEWARCPMCT [peptide … (SEQ ID NO:8)] registered an IC50 in experiment [1] of less than 500 nM. Turning to DGFVCVEWARCPNCR [peptide … (SEQ ID NO:9)], in experiment [1], the IC50 is less than 500 nM.
